Laboratory results published in PMC3118794.

Experiments:
[1] = target: actin of “ghost” muscle fibers (rabbit (endogenous in psoas muscle fibers)) (UniProt P68135); experiment: reconstitution into ghost muscle fibers, washes, SDS-PAGE; 20 µM labeled Tm added to ghost fibers in RB buffer for 15 hours at 4°C, then 20 µM troponin complex and 20 µM S1; unbound proteins removed by repeated washes with rigor buffer; 12% SDS gel quantified; details: scale: actin per S1
[2] = target: “ghost” fiber reconstituted with labeled Tm (rabbit (endogenous in psoas muscle fibers) | not stated) (UniProt P68135); experiment: as above; details: scale: actin per TnI

Sequence of skeletal troponin complex (P02586 whole entry): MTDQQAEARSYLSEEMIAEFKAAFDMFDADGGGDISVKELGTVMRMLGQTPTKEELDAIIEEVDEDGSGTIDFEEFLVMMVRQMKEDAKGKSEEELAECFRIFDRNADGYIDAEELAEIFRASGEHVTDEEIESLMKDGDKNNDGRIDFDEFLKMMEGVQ
Sequence of skeletal troponin complex (P02643 whole entry): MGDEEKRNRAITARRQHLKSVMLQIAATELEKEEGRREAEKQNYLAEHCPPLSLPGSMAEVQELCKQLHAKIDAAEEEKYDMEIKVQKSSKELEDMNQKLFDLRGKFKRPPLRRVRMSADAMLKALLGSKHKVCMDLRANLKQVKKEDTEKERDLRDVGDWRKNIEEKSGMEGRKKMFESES
Sequence of skeletal troponin complex (P02641 whole entry): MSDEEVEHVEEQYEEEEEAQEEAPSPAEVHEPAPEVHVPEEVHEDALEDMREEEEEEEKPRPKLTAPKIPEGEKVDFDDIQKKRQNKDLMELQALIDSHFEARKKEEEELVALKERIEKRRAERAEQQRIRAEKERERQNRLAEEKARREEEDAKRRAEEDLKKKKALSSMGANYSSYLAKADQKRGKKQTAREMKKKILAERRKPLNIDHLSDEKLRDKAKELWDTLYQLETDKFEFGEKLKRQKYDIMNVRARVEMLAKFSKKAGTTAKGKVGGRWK
Sequence of myosin subfragment-1 (domain or fragment) (Q28641 whole entry, the tested form may be a part): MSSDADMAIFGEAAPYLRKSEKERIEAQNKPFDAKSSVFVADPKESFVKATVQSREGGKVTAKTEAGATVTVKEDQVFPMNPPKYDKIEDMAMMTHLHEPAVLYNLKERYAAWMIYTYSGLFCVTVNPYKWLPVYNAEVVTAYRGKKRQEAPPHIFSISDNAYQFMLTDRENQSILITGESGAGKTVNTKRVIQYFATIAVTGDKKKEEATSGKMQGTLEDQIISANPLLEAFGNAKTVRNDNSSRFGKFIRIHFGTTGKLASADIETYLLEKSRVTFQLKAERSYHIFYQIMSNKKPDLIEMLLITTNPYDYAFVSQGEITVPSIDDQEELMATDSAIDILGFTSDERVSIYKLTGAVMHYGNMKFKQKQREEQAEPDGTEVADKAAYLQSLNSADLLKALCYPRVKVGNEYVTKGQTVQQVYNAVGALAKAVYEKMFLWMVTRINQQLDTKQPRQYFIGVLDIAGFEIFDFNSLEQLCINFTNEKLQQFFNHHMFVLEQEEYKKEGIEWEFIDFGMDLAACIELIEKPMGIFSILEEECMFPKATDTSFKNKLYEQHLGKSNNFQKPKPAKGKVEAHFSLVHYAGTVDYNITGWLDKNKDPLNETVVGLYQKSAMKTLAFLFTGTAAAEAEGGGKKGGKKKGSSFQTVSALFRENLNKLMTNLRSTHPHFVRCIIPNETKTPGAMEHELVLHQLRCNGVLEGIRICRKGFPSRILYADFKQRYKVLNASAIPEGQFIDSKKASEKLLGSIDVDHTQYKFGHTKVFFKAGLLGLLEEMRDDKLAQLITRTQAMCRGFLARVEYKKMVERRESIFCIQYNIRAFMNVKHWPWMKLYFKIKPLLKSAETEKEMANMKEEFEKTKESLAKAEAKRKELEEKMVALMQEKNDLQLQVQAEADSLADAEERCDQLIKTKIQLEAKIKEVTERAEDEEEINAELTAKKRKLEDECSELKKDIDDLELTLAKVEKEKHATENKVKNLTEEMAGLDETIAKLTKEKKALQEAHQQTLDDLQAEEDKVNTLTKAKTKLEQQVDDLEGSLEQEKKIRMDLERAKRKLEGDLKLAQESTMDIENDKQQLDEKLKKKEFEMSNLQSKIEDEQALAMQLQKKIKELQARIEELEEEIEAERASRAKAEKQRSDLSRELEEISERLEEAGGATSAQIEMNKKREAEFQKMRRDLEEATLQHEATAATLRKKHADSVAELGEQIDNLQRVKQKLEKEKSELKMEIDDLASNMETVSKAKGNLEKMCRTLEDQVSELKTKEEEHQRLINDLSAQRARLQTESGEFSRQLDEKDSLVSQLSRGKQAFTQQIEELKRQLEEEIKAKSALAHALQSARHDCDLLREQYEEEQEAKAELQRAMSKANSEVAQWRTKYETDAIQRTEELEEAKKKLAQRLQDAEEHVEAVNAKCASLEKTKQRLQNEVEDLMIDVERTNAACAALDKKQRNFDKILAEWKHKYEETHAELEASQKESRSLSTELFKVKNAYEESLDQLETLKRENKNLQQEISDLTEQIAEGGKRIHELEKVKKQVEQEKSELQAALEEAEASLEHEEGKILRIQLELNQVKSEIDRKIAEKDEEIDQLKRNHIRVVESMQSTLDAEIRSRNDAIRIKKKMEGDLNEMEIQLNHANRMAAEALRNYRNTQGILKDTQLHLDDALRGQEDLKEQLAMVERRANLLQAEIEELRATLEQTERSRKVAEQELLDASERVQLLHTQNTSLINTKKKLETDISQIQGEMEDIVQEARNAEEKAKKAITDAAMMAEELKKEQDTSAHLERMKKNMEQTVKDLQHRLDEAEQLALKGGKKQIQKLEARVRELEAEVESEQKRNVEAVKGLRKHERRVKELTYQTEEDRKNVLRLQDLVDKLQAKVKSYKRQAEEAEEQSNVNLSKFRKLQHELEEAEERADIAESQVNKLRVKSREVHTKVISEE

| Substance | ratio of the S1:actin intensity in reconstituted ghost fibers (SDS-PAGE) [1] | ratio of TnI:actin in the reconstituted fiber (SDS-PAGE) [2] |
| --- | --- | --- |
| myosin subfragment-1 (domain or fragment) | 1 | – |
| skeletal troponin complex (from UniProt P02586 1-160; P02643 1-182; P02641 1-279) | – | 4.5 |
